No end group written: not given here.
Target: T1, Hsp16.3, 16 kDa alpha-crystallin like heat shock protein of Mycobacterium tuberculosis, recombinant … (Mycobacterium tuberculosis, UniProt P9WMK1 1-144)
T1 construct: also called M. tuberculosis Acr; not shown: pQE-8 vector-derived residues flanking the 6xHis tag
T1 sequence: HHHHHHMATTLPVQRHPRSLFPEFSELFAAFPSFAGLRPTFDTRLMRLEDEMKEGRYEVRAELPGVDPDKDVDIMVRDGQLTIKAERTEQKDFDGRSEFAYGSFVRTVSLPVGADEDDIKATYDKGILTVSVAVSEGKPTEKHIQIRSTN
Test: reverse phage ELISA on coated Hsp16.3, anti-M13-HRP, A405

B1: M13 phage clone displaying peptide Seq ID 21 (Tyr-Pro-His-His-Phe-Lys-His-Arg-His-Ile-Pro-Ile), from Ph.D.-12 library (peptide)
peptide: YPHHFKHRHIPI
modifications: also: displayed on M13 phage, fused to coat protein
notes: Tested as whole phage particles in reverse phage ELISA; not shown: M13 coat protein to which the peptide is fused, and the spacer to it
fold binding over non-specific control BSA: ~3 fold
